# Experimental data from patent US20220380801A1, “TRIPARTITE SYSTEMS FOR PROTEIN DIMERIZATION AND METHODS OF USE” (priority 2019, published 2022).
# Values joined by “and” are separate entries in the source; they are usually repeats but may differ in a detail not shown here. Identical values can stand only once. Like-named read-outs stand apart in the source and are kept apart here.
# B1: PRSIM_57: scFv specific for HCV NS3/4A PR (S139A):simeprevir complex, SEQ ID NO: 12 (protein)
# scFv: QVQLVQSGAEVKKPGSSVKVSCKASGGTFSSYAISWVRQAPGQGLEWMGGIIPIFGTANYAQKFQGRVTITADESTSTAYMELSSLRSEDTAVYYCARHTNYITVFDYWGQGTLVTVSSGGGGSGGGGSGGGGSAQSVLTQPPSASGTPGQRVTISCSGSSSNIGSNTVNWYQQLPGTAPKLLIYSNNQRPSGVPDRFSGSKSGTSASLAISGLQSEDEADYYCAAWDHHWEQVVFGGGTKLTVL
# modifications: PRSIM_57
# B2: PRSIM_23: Tn3 protein specific for HCV NS3/4A PR (S139A):simeprevir complex, SEQ ID NO: 5 (protein)
# chain: RLDAPSQIEVKDVTDTTALITWVDPRYDDIWWFELTYGIKDVPGDRTTIKLYLNDPYYSIGNLKPDTEYEVSLISYTGDSYSRSGSNPAKITFKTGL
# modifications: PRSIM_23
# B3: PRSIM_33: Tn3 PRSIM binding molecule, SEQ ID NO: 7 (protein)
# chain: RLDAPSQIEVKDVTDTTALITWYPPGRWYDDIWYFELTYGIKDVPGDRTTIKLARGDDVYSIGNLKPDTEYEVSLISWGPDRGDRAGSNPAKITFKTGL
# modifications: PRSIM_33
# B4: PRSIM_04: scFv PRSIM binding molecule, SEQ ID NO: 11 (protein)
# scFv: QVQLVQSGAEVKKPGSSVKVSCKASGGTFSSYAISWVRQAPGQGLEWMGGIIPIFGTANYAQKFQGRVTITADESTSTAYMELSSLRSEDTAVYYCARGMAHFYQFDLWGQGTLVTVSSGGGGSGGGGSGGGGSAQSVLTQPPSASGTPGQRVTISCSGSSSNIGSNTVNWYQQLPGTAPKLLIYSNNQRPSGVPDRFSGSKSGTSASLAISGLQSEDEADYYCAAGDHDHEHVVFGGGTKLTVL
# modifications: PRSIM_04
# B5: PRSIM_67: scFv PRSIM binding molecule, SEQ ID NO: 13 (protein)
# scFv: EVQLVQSGAEVKKPGAAVRISCKTSGYVFTSYYVHWVRQAPGQGLEWMGVINPSGGNTNYAQKFQDRVTMTRDTSTTTVYMELSSLMFDDTAVYYCAKRDYGGPLANWGRGTLVTVSSGGGGSGGGGSGGGGSALSYELTQPPSVSEAPRQRVTISCSGSSSNIGNNAVNWYQQLPGKAPKLLIFYDDLLPSGVSDRFSGSKSGTSASLAISGLQSEDEADYYCAAWDDSLNGLVFGTGTKLTVL
# modifications: PRSIM_67
# B6: PRSIM_72: scFv PRSIM binding molecule, SEQ ID NO: 14 (protein)
# scFv: B4 scFv
# modifications: PRSIM_72
# B7: PRSIM_75: scFv PRSIM binding molecule, SEQ ID NO: 15 (protein)
# scFv: EVQLVQSGAEVKKPGSSVKVSCKASGGSFNSYTLDWVRQAPGQGLEWMGGIIPVFGSPNYGQKFQGRVTITADESTSTAYMELSSLKSDDTAVYYCARGLVYQPLDSWGRGTLVTVSSGGGGSGGGGSGGGGSAQAVLTQPSSASGTPGQRVTISCSGSSSNIGSYTVNWYQQFPGTAPKLLIYSNTQRPSGVPDRFSGSKSGTSASLAISGLQSEDEADYYCAAWDDSLNGWVFGGGTKVTVL
# modifications: PRSIM_75
# Columns and labels:
# [1] = system: luciferase reporter gene in HEK293 cells; experiment: Transcriptional regulation assay (split transcription factor), luciferase reporter; format: cell-based, human; conditions: for EC50: read-out: EC50; for fold increase in luciferase expression: direct comparison of DBD-PRSIM constructs with FRB:FKBP12:rapalog positive control; for max fold change: firefly luciferase
# From the text: The iDimerize regulated transcription system (Takara) was used to test the ability of PRSIM-based CIDs to regulate gene expression. […] The DBD and AD are separately fused to the two protein components of a CID such that, only in the presence of the small molecule inducer, the AD is brought into close proximity to the DBD, recruiting the transcription machinery to a promoter harbouring the DBD recognition sites. The iDimerize regulated transcription system (Takara) provides two vectors, pHet-Act1-2 and pZFHD1-Luciferase. The pHet-Act1-2 vector encodes two fusion proteins that represent a positive control: one is a fusion between FRB (T82L mutant; DmrC) and an activation domain (AD) from human p65 (SEQ ID NO: 42); the other is a fusion protein comprised of a DNA binding domain (ZFHD1) (SEQ ID NO: 43) fused to three tandem copies of FKBP12 (DmrA). These sequences are preceded by a CMV promoter and separated by an internal ribosome entry site (IRES). The ZFHD1 vector encodes luciferase preceded by an inducible promoter consisting of 12 copies of the recognition sequence of the ZFHD1 DBD upstream of a minimal IL-2 promoter. Binding of the DBD to its recognition sequence and recruitment of the transcriptional machinery by the AD initiates transcription of the luciferase reporter gene. The DNA sequence encoding HCV NS3/4A PR (S139A) was purchased as a DNA string from GeneArt and cloned into the pHet-Act1-2 vector as either an N-terminal fusion partner to the activation domain (SEQ ID NO: 44) (replacing FRB) or as a C-terminal fusion partner to the DNA binding domain (SEQ ID NO: 45) (replacing FKBP12) with flexible linkers (TGGGGSGGGGS (SEQ ID NO: 185) and SA, respectively) between the fusion partners. Subsequently, sequences encoding one copy of a panel of 12 PRSIM molecules (Table 2) were purchased as DNA strings from GeneArt and were cloned using Gibson assembly into the HCV NS3/4A PR (S139A)-containing pHetAct1-2 constructs described above, as a fusion partner to either the DBD (SEQ ID NOS: 46-56) or AD (SEQ ID NOS: 57-67), respectively. An equivalent construct was generated to replace the three copies of FKBP12 in pHet-Act1-2 with a single copy of FKBP12. The sequence of the constructs encoding both activation domain and DNA-binding domain fusion proteins was confirmed by Sanger sequencing of the entire coding region.
# Sequences encoding the three HCV NS3/4A PR (S139A) mutants (Table 6) were purchased as DNA strings from GeneArt and were cloned using Gibson assembly into the pHetAct1-2 HCV NS3/4A PR (S139A)-PRSIM_23 (3 tandem copy) construct described above as a fusion partner to the AD (SEQ ID NOs: 211-216).
# All transcriptional regulation assays were performed in adherent HEK293 cells cultured in 384-well plates. Cells enzymatically dissociated from a tissue culture flask were counted and plated at 7.5×10^3 cells/well in a 384-well plate. The plates were incubated overnight at 37° C. with 5% CO2 to allow the cells to adhere. On day 2, the cells were co-transfected with a pHet-Act1-2 plasmid (containing the FRB:FKBP12 control fusion proteins (Clontech) or the HCV NS3/4A PR (S139A):PRSIM fusion proteins) and a pZFHD1 plasmid (encoding either luciferase (Clontech) or NanoLuc-PEST (as described above)) using Lipofectamine LTX (ThermoFisher). On day 3, wells were treated with different concentrations of either A/C heterodimeriser (for the FRB:FKBP12 control), simeprevir or with vehicle control, and 24 hours later luminescence was quantified with an Envision plate reader immediately following addition of SteadyGlo luciferase substrate (Promega) or Nano-Glo Vivazine luciferase substrate (Promega). Alternatively, reverse transfections were carried out on Day 1, addition of dimeriser on Day 2 and luminescence quantified 24 hours later on Day 3.
# Luminescence readings were converted into fold-change by dividing the signal in the presence of simeprevir by that in the absence of simeprevir.
# HCV NS3/4A PR (S139A) = HCV NS3/4A PR (S139A) (Hepatitis C virus subtype 1a, UniProt A8DG50, A1066T/I1043Q/I1044E/L1039E/L1040E/L1047Q/S1165A, form not given); experiment: Phage ELISA; format: binding; conditions: phage ELISA signal with simeprevir divided by signal without simeprevir
# Experimental: Specific binding to HCV NS3/4A PR (S139A) was assessed by phage ELISA using single phagemid scFv or Tn3 clones induced for expression as described ((Osbourn et al. 1996)). Briefly, individual TG1 colonies encoding phage clones from round 3 and round 4 selection outputs, and negative control clones, were grown in 96 well plates at […] shaking at 280 rpm to log phase in media containing 100 μg/ml ampicillin and 2% (w/v) glucose. Helper phage was then added to each well and the plates incubated at […] for 1 hour, shaking at 150 rpm. Plates were then centrifuged at 4500 rpm for 10 minutes at room temperature and the media was removed and replaced with media containing 100 μg/ml ampicillin and 50 μg/ml kanamycin. Plates were then incubated overnight at 25° C., shaking at 280 rpm. The following day, phage preparations were blocked by adding an equal volume of 2×PBS containing 6% (w/v) skimmed milk powder (Marvel) to each well of the plate.
# Biotinylated HCV NS3/4A PR (S139A) was used to coat 96 well streptavidin-coated plates at 5 μg/ml […] in the presence and absence of a 3-fold excess of simeprevir (5.6 μM). Coated plates were washed with PBS and blocked with PBS containing 3% (w/v) skimmed milk powder (Marvel) for one hour. Following this blocking step, the plate wells were washed three times with PBS, prior to adding the blocked phage preps (produced as described in the phage rescue section). Phage preps were incubated with the antigens for 1 hour at room temperature prior to washing three times with PBS/Tween 20 (0.1% v/v). Phage that bound specifically to the antigen coated plate were detected using an anti-M13 phage-HRP tagged antibody (GE Healthcare), followed by detection using 3,3′, 5,5′-Tetramethylbenzidine (TMB; Sigma). The detection reaction was stopped using 0.5 M H2S04 and plates were read using a […] at 450 nm. Fluorescent readings determined for each clone binding to biotinylated HCV NS3/4A PR (S139A) in the presence of simeprevir was compared to those binding in the absence of simeprevir, by dividing the signal observed in the presence of simeprevir to the signal observed in the absence of simeprevir.
# [2] = PRSIM fused to AD, one copy, simeprevir dose-response
# [3] = PRSIM fused to DBD, one copy, simeprevir dose-response
Molecule,"Max fold change ([1]; PRSIM fused to AD, one copy)","EC50 [1, 2]","Max fold change ([1]; PRSIM fused to DBD, one copy)","EC50 [1, 3]",fold increase in luciferase expression [1],Binding fold change [(HCV protease + Simeprevir binding)/HCV protease alone] (HCV NS3/4A PR (S139A)),max fold change ([1]; one copy of PRSIM_23 fused to DBD),max fold change ([1]; three tandem PRSIM_23 fused to DBD),max fold change ([1]; two tandem PRSIM_23 fused to DBD),EC50 ([1]; fusion orientation not stated)
B1,10.73,3.21 nM,146 and 146.6,3.54 nM,100 fold,15.7,,,,
B2,106 and 106.67,2.82 nM,88 and 88.8,2.47 nM,100 fold,23.8,364.5,4862 fold,2436,2 nM
B3,2.9,82.4 nM,33.14,12.8 nM,,,,,,
B4,6.9,159000 nM,1.364,6.55 nM,,30.3,,,,
B5,87.1,4.97 nM,1,2.05 nM,,12.7,,,,
B6,2.2,4.84 nM,1.4,33 nM,,12.5,,,,
B7,40.67,2.17 nM,9.4,2.67 nM,,6.9,,,,
